Test results as given in US20100240040A1 (INSTITUT PASTEUR, published 2010).
Where no end group is shown, it is not given here. Bodipy = not defined here

T1: spCC2-LZ (murine)
T1 construct: also called MOD; minimal oligomerization domain of NEMO
T1 chain: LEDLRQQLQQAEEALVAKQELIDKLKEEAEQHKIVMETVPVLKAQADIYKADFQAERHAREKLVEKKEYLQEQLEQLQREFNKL

B1: DR NLM (peptide)
peptide: LKAQADIYKARFQAERHAREK
notes: also called tag-free DR NLM; NLM-DR
B2: NLM (peptide)
peptide: LKAQADIYKADFQAERHAREK
notes: also called tag-free NLM; NLM peptide of NEMO
B3: BA-DR NLM (peptide)
peptide: C(Bodipy)RQIKIWFQNRRMKWKKLKAQADIYKARFQAERHAREK
modifications: reading uncertain
notes: also called BA-NLM-DR; DR NLM fused to its N-terminus with the antennapedia peptide
B4: BR7-DR NLM (peptide)
peptide: C(Bodipy)RRRRRRRLKAQADIYKARFQAERHAREK
modifications: reading uncertain
notes: also called DR NLM fused to the poly R7 peptide

Columns and labels:
[1] = molecular target: the molecule itself; assay: circular dichroism and gel filtration (data not shown)
spCC2-LZ = molecular target: T1, spCC2-LZ; assay: fluorescence anisotropy, 10 µM labelled peptide titrated with spCC2-LZ
Description: The concentration of spCC2-LZ was determining by amino acid analysis (Vinolo et al; 2006).

[2] = molecular target: NEMO (endogenous, in 70Z/3-C3 cells) (UniProt O88522 1-412, limits assumed); assay: cell-based or functional assay
Sequence of NEMO (endogenous, in 70Z/3-C3 cells) (O88522 whole entry): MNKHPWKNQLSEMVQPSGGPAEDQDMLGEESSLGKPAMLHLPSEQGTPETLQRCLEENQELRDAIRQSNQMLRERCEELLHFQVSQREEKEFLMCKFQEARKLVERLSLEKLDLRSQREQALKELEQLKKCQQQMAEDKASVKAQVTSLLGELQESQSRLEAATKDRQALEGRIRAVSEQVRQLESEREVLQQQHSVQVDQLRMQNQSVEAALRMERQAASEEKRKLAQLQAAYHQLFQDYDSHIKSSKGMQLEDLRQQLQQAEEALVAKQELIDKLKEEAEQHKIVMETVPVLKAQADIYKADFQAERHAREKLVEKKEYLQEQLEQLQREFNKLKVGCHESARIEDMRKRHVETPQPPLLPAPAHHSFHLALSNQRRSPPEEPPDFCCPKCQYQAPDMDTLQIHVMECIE

Binder | binding result [1] | Kd (spCC2-LZ) [µM] | IC50 of NF-κB activity (β-galactosidase reporter in 70Z/3-C3 cells after PMA, IL-1 or LPS) [2] [µM]
B1 | no binding (tested: up to 100 µM) |  | 
B2 | no binding (tested: up to 100 µM) |  | 
B3 |  | 17 | 0.9
B4 |  | 21 | 
